In patent US20070099268A1, “Chimeric HCN channels” (priority 2005, published 2007):
Entries after “also recorded” stand apart in the source; their conditions may differ.

Key:
AdHCN2 infected culture = assay: Modulation of spontaneous rate by drugs in an AdHCN2 infected culture; type: cell-based, rat; conditions: superfusion with drug; control record of same culture 48, 54 and 96 beats/min respectively
[1] = system: cell-free patches from Xenopus oocytes; conditions: binding of cAMP to the CNBD; cited from earlier work
[2] = system: neonatal rat ventricular myocytes; assay: Voltage clamp of HCN2 or HCN4 plasmid (lipofectin) expressed in neonatal rat ventricular myocytes; type: cell-based
Description: cDNAs encoding mouse HCN2 (mHCN2, GenBank AJ225122) or HCN4 (mHCN4, GenBank deposit in progress) were subcloned into the pCI mammalian expression vector (Promega, Madison, Wis.). The resulting plasmids (pCI-mHCN2 or pCI-mHCN4) were used for neonatal rat ventricular myocyte transfection, as indicated. A separate plasmid (pEGFP-CI; Clontech, Palo Alto, Calif.) expressing the gene of enhanced green fluorescent protein (EGFP) as a visual marker for successful DNA transfer was included in all transfection experiments. For transfection, 2 μg of pCI-mHCN and […] of pEGFP-CI were first incubated in 200 μl of SFM containing 10 μl of lipofectin (Gibco Life Technologies, Rockville, Md.) at room temperature for 45 min. The mixture was then added to a 35-mm petri dish containing […] suspended in 0.8 ml of SFM. After overnight incubation at 37° C. in a CO2 incubator, the medium containing the plasmids and lipofectin was discarded and the dish was refilled with 2 ml of fresh SFM.
The whole-cell voltage clamp technique was employed to record native If or expressed IHCN2 or IHCN4. Action potentials were recorded in current clamp mode, again using a whole cell patch electrode. Experiments were carried out on cells superfused at 35° C. Extracellular solution contained (mM): NaCl, 140; NaOH, 2.3; MgCl2, 1; KCl, 5.4; CaCl2, 1.0; HEPES, 5; glucose, 10; pH 7.4. To record from myocytes expressing native currents (If), myocytes expressing HCN2 (IHCN2) or HCN4 (IHCN4), [K^+]0 was increased to 10 mM, and MnCl2 (2 mM) and BaCl2 (4 mM) added to the superfusate to eliminate calcium and inward rectifier (IK1) currents. In some experiments CsCl (4 mM) was used extracellularly to identify the pacemaker current as the Cs-sensitive current. The patch pipette solution included (mM): aspartic acid, 130; KOH, 146; NaCl, 10; CaCl2, 2; EGTA-KOH, 5; Mg-ATP, 2; HEPES-KOH, 10, pH 7.2. Where indicated, 10 μM cAMP was included in the pipette solution. A fast solution changing apparatus expedited the experimental protocols. The pipette resistance was typically 1-3 M. An Axopatch-200B amplifier and pClampS software (Axon Instruments) were used for acquisition and data analysis. […]
The activation relation of the native or expressed current can be determined from the steady-state I-V relation. In this case, the reversal potential (Vf) was separately determined from the fully activated I-V relation (Accili et al., 1991) and used to generate the activation relation (y=I/(gmax*(V−Vf)), where gmax is the maximal conductance). […] Tail currents were measured at a negative voltage (−125 mV) to avoid contamination by transient outward and other currents at less negative voltages. […]

[3] = system: mammalian expression systems; conditions: cited from earlier work
Xenopus oocytes = assay: Two-microelectrode voltage clamp of mHCN2 and mE324A expressed in Xenopus oocytes; type: cell-based, Xenopus laevis
Procedure: Oocytes were prepared from mature female Xenopus laevis in accordance with an approved protocol as previously described (Yu et al., 2004).
For expression of HCN in Xenopus oocytes, oocytes were injected with 5 ng of cRNA made from mouse wild-type mHCN2 and mutant mHCN2 (E324A) plasmids. Injected oocytes were incubated at 18° C. for 24-48 h prior to electrophysiological analysis.
For measurements in Xenopus oocytes, oocytes were voltage-clamped using a two-microelectrode voltage clamp technique. The extracellular recording solution (OR2) contained (in mM): NaCl, 80; KCl, 2; MgCl2, 1; and Na-HEPES, 5 (pH 7.6). For the recording of steady state activation of expressed Wt mHCN2, currents were elicited by 2-s long hyperpolarizing pulses between −30 mV and −160 mV with 10 mV increments, followed by a 1-s depolarizing pulse to +15 mV. The holding potential was −30 mV. As to the mHCN2 (E324A), currents were elicited by 3-s-long hyperpolarizing pulses between +20 mV and −130 mV with 10 mV increments, followed by a 1 second depolarizing pulse to +50 mV. The holding potential was +20 mV. To construct the current/voltage relationship for wildtype (Wt) mHCN2, the cell was held at […], the current was elicited by a 2-s hyperpolarizing voltage step to −140 mV to saturate activation, and followed by 2-s depolarizing voltage steps between […] and +50 mV in 10 mV increments. For mHCN2 (E324A), the cell was held at +20 mV, current was elicited by a 1.5-s hyperpolarizing voltage step to −110 mV to saturate activation, and then followed by 1.5-s depolarizing voltage steps between −80 mV and +50 mV in 10 mV increments for the recording of tail currents. To record the current amplitudes for Wt mHCN2, the current was evoked by applying a 3-s hyperpolarizing voltage pulse to −120 mV from a holding potential of −30 mV. For mHCN2 (E324A), the current was evoked by applying a 3-s hyperpolarizing voltage pulse to −120 mV from a holding potential of +20 mV.

Molecule: CCN(c1ccccc1)c1cc(=NC)n(C)c(C)n1.Cl [ZD-7288]
- spontaneous rate during drug exposure (AdHCN2 infected culture): 78 beats/min

Molecule: C[N+](C)(C)CCOC(N)=O [carbachol]
- spontaneous rate during drug exposure (AdHCN2 infected culture): 45 beats/min

B1: HCN1: mouse HCN1 channel isoform (protein)
chain: MEGGGKPNSASNSRDDGNSVFPSKAPATGPVAADKRLGTPPGGGAAGKEHGNSVCFKVDGGGGEEPAGSFEDAEGPRRQYGFMQRQFTSMLQPGVNKFSLRMFGSQKAVEKEQERVKTAGFWIIHPYSDFRFYWDLIMLIMMVGNLVIIPVGITFFTEQTTTPWIIFNVASDTVFLLDLIMNFRTGTVNEDSSEIILDPKVIKMNYLKSWFVVDFISSIPVDYIFLIVEKGMDSEVYKTARALRIVRFTKILSLLRLLRLSRLIRYIHQWEEIFHMTYDLASAVVRIFNLIGMMLLLCHWDGCLQFLVPLLQDFPPDCWVSLNEMVNDSWGKQYSYALFKAMSHMLCIGYGAQAPVSMSDLWITMLSMIVGATCYAMFVGHATALIQSLDSSRRQYQEKYKQVEQYMSFHKLPADMRQKIHDYYEHRYQGKIFDEENILSELNDPLREEIVNFNCRKLVATMPLFANADPNFVTAMLSKLRFEVFQPGDYIIREGAVGKKMYFIQHGVAGVITKSSKEMKLTDGSYFGEICLLTKGRRTASVRADTYCRLYSLSVDNFNEVLEEYPMMRRAFETVAIDRLDRIGKKNSILLQKFQKDLNTGVFNNQENEILKQIVKHDREMVQAIPPINYPQMTALNCTSSTTTPTSRMRTQSPPVYTATSLSHSNLHSPSPSTQTPQPSAILSPCSYTTAVCSPPIQSPLATRTFHYASPTASQLSLMQQPQQQLPQSQVQQTQTQTQQQQQQQQQQQQQQQQQQQQQQQQQQQQQQQQQQQQQPQTPGSSTPKNEVHKSTQALHNTNLTKEVRPLSASQPSLPHEVSTLISRPHPTVGESLASIPQPVAAVHSTGLQAGSRSTVPQRVTLFRQMSSGAIPPNRGVPPAPPPPAAVQRESPSVLNTDPDAEKPRFASNL
- shift of activation curve to more positive potentials by cAMP [1]: 4 mV

B2: HCN4: mouse HCN4 channel isoform (protein, UniProt O70507 1-1201, looked up)
Potassium/sodium …: MDKLPPSMRKRLYSLPQQVGAKAWIMDEEEDGEEEGAGGRQDPSRRSIRLRPLPSPSPSVAAGCSESRGAALGATESEGPGRSAGKSSTNGDCRRFRGSLASLGSRGGGSGGAGGGSSLGHLHDSAEERRLIAAEGDASPGEDRTPPGLATEPERPATAAQPAASPPPQQPPQPASASCEQPSADTAIKVEGGAAASDQILPEAEVRLGQSGFMQRQFGAMLQPGVNKFSLRMFGSQKAVEREQERVKSAGFWIIHPYSDFRFYWDLTMLLLMVGNLIIIPVGITFFKDENTTPWIVFNVVSDTFFLIDLVLNFRTGIVVEDNTEIILDPQRIKMKYLKSWFVVDFISSIPVDYIFLIVETRIDSEVYKTARALRIVRFTKILSLLRLLRLSRLIRYIHQWEEIFHMTYDLASAVVRIVNLIGMMLLLCHWDGCLQFLVPMLQDFPHDCWVSINGMVNNSWGKQYSYALFKAMSHMLCIGYGRQAPVGMSDVWLTMLSMIVGATCYAMFIGHATALIQSLDSSRRQYQEKYKQVEQYMSFHKLPPDTRQRIHDYYEHRYQGKMFDEESILGELSEPLREEIINFNCRKLVASMPLFANADPNFVTSMLTKLRFEVFQPGDYIIREGTIGKKMYFIQHGVVSVLTKGNKETKLADGSYFGEICLLTRGRRTASVRADTYCRLYSLSVDNFNEVLEEYPMMRRAFETVALDRLDRIGKKNSILLHKVQHDLNSGVFNYQENEIIQQIVRHDREMAHCAHRVQAAASATPTPTPVIWTPLIQAPLQAAAATTSVAIALTHHPRLPAAIFRPPPGPGLGNLGAGQTPRHPRRLQSLIPSALGSASPASSPSQVDTPSSSSFHIQQLAGFSAPPGLSPLLPSSSSSPPPGACGSPPAPTPSTSTAAAASTTGFGHFHKALGGSLSSSDSPLLTPLQPGARSPQAAQPPPPLPGARGGLGLLEHFLPPPPSSRSPSSSPGQLGQPPGELSLGLAAGPSSTPETPPRPERPSFMAGASGGASPVAFTPRGGLSPPGHSPGPPRTFPSAPPRASGSHGSLLLPPASSPPPPQVPQRRGTPPLTPGRLTQDLKLISASQPALPQDGAQTLRRASPHSSGESVAAFSLYPRAGGGSGSSGGLGPPGRPYGAIPGQHVTLPRKTSSGSLPPPLSLFGARAASSGGPPLTTAAPQREPGARSEPVRSKLPSNL
- activation kinetics compared to HCN2 ([2]; for most voltages): markedly slower
- slope factor (K) ([2]; lipofectin transfection): 6.7±0.7 mV
- midpoint of activation reported in other mammalian expression studies [3]: −80 to −109 mV

B3: mE324A: mHCN2 with glutamate at position 324 mutated to alanine (protein, UniProt O88703 1-863, looked up, variant E324A)
Potassium/sodium …: MDARGGGGRPGDSPGTTPAPGPPPPPPPPAPPQPQPPPAPPPNPTTPSHPESADEPGPRARLCSRDSACTPGAAKGGANGECGRGEPQCSPEGPARGPKVSFSCRGAASGPSAAEEAGSEEAGPAGEPRGSQASFLQRQFGALLQPGVNKFSLRMFGSQKAVEREQERVKSAGAWIIHPYSDFRFYWDFTMLLFMVGNLIIIPVGITFFKDETTAPWIVFNVVSDTFFLMDLVLNFRTGIVIEDNTEIILDPEKIKKKYLRTWFVVDFVSSIPVDYIFLIVEKGIDSEVYKTARALRIVRFTKILSLLRLLRLSRLIRYIHQWAEIFHMTYDLASAVMRICNLISMMLLLCHWDGCLQFLVPMLQDFPSDCWVSINNMVNHSWSELYSFALFKAMSHMLCIGYGRQAPESMTDIWLTMLSMIVGATCYAMFIGHATALIQSLDSSRRQYQEKYKQVEQYMSFHKLPADFRQKIHDYYEHRYQGKMFDEDSILGELNGPLREEIVNFNCRKLVASMPLFANADPNFVTAMLTKLKFEVFQPGDYIIREGTIGKKMYFIQHGVVSVLTKGNKEMKLSDGSYFGEICLLTRGRRTASVRADTYCRLYSLSVDNFNEVLEEYPMMRRAFETVAIDRLDRIGKKNSILLHKVQHDLSSGVFNNQENAIIQEIVKYDREMVQQAELGQRVGLFPPPPPPQVTSAIATLQQAVAMSFCPQVARPLVGPLALGSPRLVRRAPPGPLPPAASPGPPAASPPAAPSSPRAPRTSPYGVPGSPATRVGPALPARRLSRASRPLSASQPSLPHGVPAPSPAASARPASSSTPRLGPAPTARTAAPSPDRRDSASPGAASGLDPLDSARSRLSSNL
- activation threshold (Xenopus oocytes): around −30 mV
- slope (s) with cAMP (Xenopus oocytes; 8-Br-cAMP 1 mM): 19.7 mV
- Vh with cAMP (Xenopus oocytes; 8-Br-cAMP 1 mM extracellular): −48.9 mV
- effect of Cs+ on inward current (Xenopus oocytes; Cs+ 5 mM): blocked; also recorded: large inhibition
- slope (s), control (Xenopus oocytes; control): 15.2 mV
- reversal potential of IHCN2 (Xenopus oocytes; fully activated current/voltage relation): ~−40 mV
- half maximal activation (Vh), control (Xenopus oocytes; oocytes, control): −57.3 mV
- induced current (Xenopus oocytes; single voltage pulse to −120 mV): 579.8±18.2 nA
